# Measurements taken from the DeepSol protein solubility set.
# Test: soluble on expression in E. coli; label from the status in PepcDB or PDB records
row,Sequence,soluble on expression in E. coli
1,MMDDILKQIKAGEVSGVQFKERILDKYDIACELVAFSNSHGGKLVVGIKDKTGETNALSYSEVQETTNLLSDIASENVVPSILIKIDTVEVEDGNLVVATVKEGLNKPYHDNKGIVWVKNGADKRKVFDNAELAEMMTDCGSFAPDEAGVRDATVNDLDATTIKQFLGNRFERVLDKKGLTGDAFNEASLDMICSAIAKGHDCEKILRNLRFIRPDGTLTVAAMLLFGKYTQRWMPMMTAKCICFAGNSVGSKVFRDKVNDADMEGNLLHQYDTIMDFFTRNLHNVQVGDEFNSMGKLEIPYTSLVEFTVNSLVHRSLNMKAPVRIFIFDNRVEIHSPGALPNGLTIDDIKAGTSMPRNTFLFNNAIYLLPYTGVGSGITRALDEDINVTFMNNDKAQEFVITVWRGESNQVEDLDTGLRHSDTDLDTGLRHSDTDLDTKRVTLTNKEKDIVNFCSVPRTTKEILDRIGVSMHSKNRERYITSLVAAGYLQMTNPDNPTASNQKYKKVNKR,not soluble
2,MMDDILKQIKAGEVSGVQFKERILDKYDIACELVAFSNSHGGKLVVGIKDKTGETNALSYSEVQETTNLLSDIASENVVPSILIKIDTVEVEDGNLVVATVKEGLNKPYHDNKGIVWVKNGADKRKVFDNAELAEMMTDCGSFAPDEAGVRDATVNDLDATTIKQFLGNRFERVLDKKGLTGDAFNEASLDMICSAIAKGHDCEKILRNLRFIRPDGTLTVAAMLLFGKYTQRWMPMMTAKCICFAGNSVGSKVFRDKVNDADMEGNLLHQYDTIMDFFTRNLHNVQVGDEFNSMGKLEIPYTSLVEFTVNSLVHRSLNMKAPVRIFIFDNRVEIHSPGALPNGLTIDDIKAGTSMPRNTFLFNNAIYLLPYTGVGSGITRALDEDINVTFMNNDKAQEFVITVWRGESNQVEDLDTGLRHSDTDLDTGLRHSDTDLDTKRVTLTNKEKDIVNFCSVPRTTKEILDRIGVSMHSKNRERYITSLVAAGYLQMTNPDNPTASNQKYKKVNKRLEHHHHHH,soluble
3,MMDNNITETEMKVGHPPANKVGGRRVVNRKDRKNSDSNDNANSEGSDEVVREIIDYDLPAKMERSYPTEAVKKVHEKPMPAIQPVHINRDANSGVHRFQPRKQTH,soluble
4,MMENYITSFQLRFCPAAYLHLEQLPSLWRSILPYLPQWRDSAHLNAALLDEFSLDTDYEEPHGLGALPLQPQSQLELLLCRLGLVLHGEAIRRCVLASPLQQLLTLVNQETLRQIIVQHELLIGPWPTHWQRPLPTEIESRTMIQSGLAFWLAAMEPQPQAWCKRLSLRLPLATPSEPWLVAESQRPLAQTLCHKLVKQVTPTCSHLFK,not soluble
5,MMEVRINKFLSEAGVASRRKAEKLILEGRVKVNGEVVRSLGVKVNPEVDIVEVDGKPVKPQRKRYIILNKPCCYLTQLGRSPDGRKTIEELIKDIPERVFPVGRLDYNTEGLLILTNDGELANRILHPRYKLPKVYLALVEGKVDQKTLKRMKQGIELEDGFAKPDNIRIVRYEGKNTLLEITFHEGRKHLVKRFLGAFGHKVKRLKRIAIGPIKLGKLSPGKWRELNQGELAQLFKAVGLKYVPRKRRLEHHHHHH,soluble
6,MMGCLPTKQVGRSTHSLNPREAVALAAETSFTVNEVEALYDLFRKLSNSIIKDGLIHKEEFHLALFRNKKTNLFVDRVFDLFDQKGNGVIEFDEFVRSLSVFHPDAPEEQKAGFAFKLYDLRQTGFIERHELKEMVLALLDESDLNITSDAVEMIVDRTFDQADTKGDERIDQEEWNEFVKNNPYVLRNMTLPYLKDLTMVFPSFVIHSEVSEADMVA,soluble
7,MMGNKLTLPAELPDEQDLRAVLAYNMRLFRVNKGWSQEELARQCGLDRTYVSAVERKRWNIALSNIEKMAAALGVAAYQLLLPPQERLKLMTNSADTRQMPSESGI,not soluble
8,MMKQNPILITGGTGTVGSRIASRLIKLGYRVRIASRKKGALADAEYVYFNWKYASSFTPALEQVKQIYLVAPVGVFDPAPYVLPFLKEAKRLGAKRVVMQSASVVSENGPVFGALHQAVREFPEWTVLRPSYFMQNFINVQHRMSIQTEGRITTASGEGKLGFIDADDIAETAVRALIDDVPHQTHHILTGPEALSYAEAAEIIGAAAGRRVEHVSISRSELQHKMEAGGLPADYAHFMAKLDEAISHGAEHRVTDTVKRVTGKEPRSLSEFAAAHAAYWTSFWTELEHHHHHH,not soluble
9,MMLITTSHRPTRRTRSFGHDLERVFPNSLYLTRGKKTIQELLMEAYDRGYERLLILNVWKGNPLKMTFIKVHPEDWGYLGYLYLHGIKLQREMGFKGLNPIREDMPLVVTTAKRVGWDHIAFAQVFAELTTGKFVPRGDKSLTYIADKYDTDVIAVIERHPRGMVINFYRLDVTKDRPVGPLINVKIWIMEDGRRWDYKEALGIKVPRREKGEGQESSSENRDLEHHHHHH,soluble
10,MMLNNFETDSIFTPEQVLENRGRVAIFIDGSNLFYAALQLGIEIDYTKLLCRLTGGSRLLRSFFYTGVDRTNEKQQGFLLWMRRNGYRVIAKDLVQLPDGSKKANLDVEIAVDMMALVDSYDTAVLVSGDGDLAYAVNSVSYRGVRVEVVSLRSMTSDSLINVSDRYIDLEAIKEDIQKTPRQSYPYRPLSGIGFLEDPRTSDGHLEIQE,not soluble
11,MMLSNFKRNKYQQHLAQLPRISQNADDVQTLHSPELFRTTLTNAILRAKKRVYIVALYLERDDGGIGILSAIYEAKRQCPELDVRVLVDWHRAQRGRIGTAAENTNADWYCDMAKKHPDTHFPIYGIPVNTREALGVLHLKGFIVDDTVIYSGASLNDVYLHQHQKYRYDRYQLIHNPVLADTMVQYIQTMLSAPAVQRLDHTDRPKSLEIKNDIKQFRQTLRTASYQAPECSANANELTVTPLVGLGKQSPLNKTIHHLMYCADEHLVICTPYFNMPALLVRNIIRLLRDGKKVEIIIGDKTANDFYIPEDQPFKIIGALPYLYEINLRRFLSRLERYIENQQLVVRLWKDGDNSFHLKGMWVDGKWQLLTGNNLNPRAWRLDLENAILIHDPQQVLLQQRLDELDTIRTHTHVVKSYTELESIAQYPVKVRKLIRRLRRIRIDRLISRILLEHHHHHH,not soluble
12,MMNKLPHETRVVIGMSGGVDSSVAALLLKEQGYDVIGIFMKNWDDTDENGVCTATEDYNDVIEVCNQIGIPYYAVNFEKQYWDKVFTYFLDEYRAGRTPNPDVMCNKEIKFKAFLEHAIALGADYVATGHYARVAYMDGEYKMLRGVDDNKDQTYFLNQLSQEQLSKTMFPLGELKKPQIREMAKEAGLATAAKKDSTGICFIGERNFKDFLSNYLPAQPGVMQTLSGEVKGKHDGLMYYTIGQRHGLGIGGNGDPWFAVGKNLKENILYVDQGFHNELLYGDEVIATNVGWVSNKEKETEFKCTAKFRYRQEDNKVTVQIVDENTVRILCDEPIRAITPGQAVVFYDGDECLGGATIDEVYRSGKKLDYLG,not soluble
13,MMPNEKITLKQLIDHCFDTTKTTIKQQIVFGAGKIENKNFNIVGTVEDTSFGVDESIEMARCILDIIKNNNTDPIVLLTDVAGQKLAVRDEWLGMYAYFAHLLKCLHLARQNGNKIITLIYNQAIGGSFIAFGMMADRIYALKNAKLAVMWLEGMSKVTKIDIDVLRKISETSPVFAPGVENFKKLGGLHQVLDLDEVSQQLLLTLQEPNISHDNRAELGKQYGGRKEAYDIIKAIENL,not soluble
14,MMYPYVRLFMEMRRARRLDPLPVLGTHRSSHRCLPWDLAPWRELNNGRTLTLFDLGRAPLLVRTGMQRICSEKGWGMTVAGSSVRYRRRVVLMERLEMVSRCLGWDGRFFYMEQSLWRKGDCTSHMLLRAATTTGSGIVPPAEVAAALGAGESPPLPDWAQAWIEADALRPWPPAALEHHHHHH,not soluble
15,MNADGWLADTRSSYDTVAVSYADQLRGALAGTPYLRAALELFAGMIHTAGGGPVADVGCGPGHVTAHLHGLGVDAFGIDLSPAMIDVARRDHPDLRFEVGSMTDLNLADASVTALLAFWSLIHVPDDAIPAVFGHFRRVVRPGGPLLLGFHIGDESRLKTEGYGGHPMKVHVHHRQPVQVTAWLRDAGFTVEAQWLLGLDGHIPGAVLFAHRQSLEHHHHHH,not soluble
16,MNAHVTSREGVNEFDDGIVIVGGGLAAARTAEQLRRAGYSGRLTIVSDEVHLPYDRPPLSKEVLRSEVDDVALKPREFYDEKDIALRLGSAAVSLDTGEQTVTLADGTVLGYDELVIATGLVPRRIPSLPDLDGIRVLRSFDESMALRKHASAARHAVVVGAGFIGCEVAASLRGLGVDVVLVEPQPAPLASVLGEQIGQLVTRLHRDEGVDVRTGVTVAEVRGKGHVDAVVLTDGTELPADLVVVGIGSTPATEWLEGSGVEVDNGVICDKAGRTSAPNVWALGDVASWRDPMGHQARVEHWSNVADQARVVVPAMLGTDVPTGVVVPYFWSDQYDVKIQCLGEPHATDVVHLVEDDGRKFLAYYERDGVLVGVVGGGMAGKVMKVRGKIAAGAPIAEVLDQTQA,soluble
17,MNALARRAAGLLLGTLCLPLAAFAADVQPTHEFILDNGLKVVVREDHRAPVVVSQIWYKVGSSYETPGQTGLSHALEHMMFKGSAKVGPGEASRILRDLGADENAFTSDDYTAYYQVLARDRLPVALELEADRLASLRLPADEFSREIEVIKEERRLRTDDQPNAKAFELFRAMAYPASGYHTPTIGWMADLERMKVEELRHWYESWYAPNNATLVVVGDVTADEVKGLAQKYFGNIPKRA,not soluble
18,MNALLSNPFKERLRKGEVQIGLWLSSTTAYMAEIAATSGYDWLLIDGEHAPNTIQDLYHQLQAVAPYASQPVIRPVEGSKPLIKQVLDIGAQTLLIPMVDTAEQARQVVSATRYPPYGERGVGASVARAARWGRIENYMAQVNDSLCLLVQVESKTALDNLDEILDVEGIDGVFIGPADLSASLGYPDNAGHPEVQRIIETSIRRIRAAGKAAGFLAVAPDMAQQCLAWGANFVAVGVDTMLYSDALDQRLAMFKSGKNGPRIKGSY,soluble
19,MNARKAPEFPAWPQYDDAERNGLVRALEQGQWWRMGGDEVNSFEREFAAHHGAAHALAVTNGTHALELALQVMGVGPGTEVIVPAFTFISSSQAAQRLGAVTVPVDVDAATYNLDPEAVAAAVTPRTKVIMPVHMAGLMADMDALAKISADTGVPLLQDAAHAHGARWQGKRVGELDSIATFSFQNGKLMTAGEGGAVVFPDGETEKYETAFLRHSCGRPRDDRRYFHKIAGSNMRLNEFSASVLRAQLARLDEQIAVRDERWTLLSRLLGAIDGVVPQGGDVRADRNSHYMAMFRIPGLTEERRNALVDRLVEAGLPAFAAFRAIYRTDAFWELGAPDESVDAIARRCPNTDAISSDCVWLHHRVLLAGEPELHATAEIIADAVARA,soluble
20,MNASSAPQQQQQQQQPQQGQAPQQQQQGPPQHQYQQQRPFHGRVQNHMRGSGPFGNSNGYGRYTAPRGDQQHHDSTPLSSTNLYIRGLMPNTNDDLLREMCSKYGNIASTKAIMDKATNNCKGYGFVDFESPQAAAAAVDGLNTEGVQAQMAKLQQQEQDPTNLYIANLPLDFTEQMLETELNKFGMVISTRILRTPDNQSRGVGFARMDSKEKCEVIISALNGGRFDTMSKEGPALLIKQADTGRKSKHSMNNPEMLQRMQYPQVYQSYYGYHPAAVYQQHYDVNSLASQMGGMHVGGGNPQANGGGDMYGAHMYGQNAGGQGGQGVGQGGQGGNQQFYNPNNGRNKKYFQPMNPQ,not soluble
21,MNAVKIEKGVAQYIEHNLYYYFEYVRDIQRLKKDILFGRANYDENVGGGRGNLPSRPTERRTIELITHRRLERLEQIVHAIQTVYRSLSPEKQKAVQLKYWSGKSYTWEQVAREIGVSVRQLYRWRDQIIYDIAKLLGEVNSNS,not soluble
